Assay results published in ChEMBL document CHEMBL1212722, “Designer enzymes for glycosphingolipid synthesis by directed evolution” (Nat Chem Biol, 2009).
Residue numbers refer to the chain shown, from its start. In names and notes the source's numbering stands.

Columns and labels:
[1] = substrate: CCCCCCCCCCCCCC[C@@H](O)[C@@H](O)[C@@H](N)CO; assay: Ratio of Kcat to Km of Activity of Rhodococcus sp. M777 Endoglycoceramidase 2 K129N mutant
[2] = substrate: CCCCCCCCCCCCC/C=C/[C@@H](O)[C@@H](N)CO; assay: (§1) Activity of Rhodococcus sp. M777 Endoglycoceramidase 2 D314Y mutant
[3] = substrate: CC(=O)N[C@H]1[C@H](O[C@@H]2[C@H](O[C@]3(C(=O)O)C[C@H](O)[C@@H](NC(C)=O)[C@H]([C@@H](O)[C@@H](O)CO)O3)[C@@H](O)[C@H](O[C@H]3[C@H](O)[C@@H](O)[C@@H](F)O[C@@H]3CO)O[C@@H]2CO)O[C@H](CO)[C@H](O)[C@@H]1O[C@@H]1O[C@H](CO)[C@H](O)[C@H](O)[C@H]1O; assay: as §1
[4] = substrate: CCCCCCCCCCCCC/C=C/[C@@H](O)[C@@H](N)CO; assay: (§2) Ratio of Kcat to Km of Activity of Rhodococcus sp. M777 Endoglycoceramidase 2 D314Y mutant
[5] = substrate: CC(=O)N[C@H]1[C@H](O[C@@H]2[C@H](O[C@]3(C(=O)O)C[C@H](O)[C@@H](NC(C)=O)[C@H]([C@@H](O)[C@@H](O)CO)O3)[C@@H](O)[C@H](O[C@H]3[C@H](O)[C@@H](O)[C@@H](F)O[C@@H]3CO)O[C@@H]2CO)O[C@H](CO)[C@H](O)[C@@H]1O[C@@H]1O[C@H](CO)[C@H](O)[C@H](O)[C@H]1O; assay: as §2
[6] = substrate: CCCCCCCCCCCCC/C=C/[C@@H](O)[C@@H](N)CO; assay: (§3) Activity of Rhodococcus sp. M777 Endoglycoceramidase 2 A153T mutant
[7] = substrate: CC(=O)N[C@H]1[C@H](O[C@@H]2[C@H](O[C@]3(C(=O)O)C[C@H](O)[C@@H](NC(C)=O)[C@H]([C@@H](O)[C@@H](O)CO)O3)[C@@H](O)[C@H](O[C@H]3[C@H](O)[C@@H](O)[C@@H](F)O[C@@H]3CO)O[C@@H]2CO)O[C@H](CO)[C@H](O)[C@@H]1O[C@@H]1O[C@H](CO)[C@H](O)[C@H](O)[C@H]1O; assay: as §3
[8] = substrate: CCCCCCCCCCCCC/C=C/[C@@H](O)[C@@H](N)CO; assay: (§4) Ratio of Kcat to Km of Activity of Rhodococcus sp. M777 Endoglycoceramidase 2 A153T mutant
[9] = substrate: CC(=O)N[C@H]1[C@H](O[C@@H]2[C@H](O[C@]3(C(=O)O)C[C@H](O)[C@@H](NC(C)=O)[C@H]([C@@H](O)[C@@H](O)CO)O3)[C@@H](O)[C@H](O[C@H]3[C@H](O)[C@@H](O)[C@@H](F)O[C@@H]3CO)O[C@@H]2CO)O[C@H](CO)[C@H](O)[C@@H]1O[C@@H]1O[C@H](CO)[C@H](O)[C@H](O)[C@H]1O; assay: as §4
[10] = substrate: CCCCCCCCCCCCC/C=C/[C@@H](O)[C@@H](N)CO; assay: (§5) Ratio of Kcat to Km of Activity of Rhodococcus sp. M777 Endoglycoceramidase 2 I276F mutant
[11] = substrate: CC(=O)N[C@H]1[C@H](O[C@@H]2[C@H](O[C@]3(C(=O)O)C[C@H](O)[C@@H](NC(C)=O)[C@H]([C@@H](O)[C@@H](O)CO)O3)[C@@H](O)[C@H](O[C@H]3[C@H](O)[C@@H](O)[C@@H](F)O[C@@H]3CO)O[C@@H]2CO)O[C@H](CO)[C@H](O)[C@@H]1O[C@@H]1O[C@H](CO)[C@H](O)[C@H](O)[C@H]1O; assay: as §5
[12] = substrate: CCCCCCCCCCCCC/C=C/[C@@H](O)[C@@H](N)CO; assay: (§6) Activity of Rhodococcus sp. M777 Endoglycoceramidase 2 I276F mutant
[13] = substrate: CC(=O)N[C@H]1[C@H](O[C@@H]2[C@H](O[C@]3(C(=O)O)C[C@H](O)[C@@H](NC(C)=O)[C@H]([C@@H](O)[C@@H](O)CO)O3)[C@@H](O)[C@H](O[C@H]3[C@H](O)[C@@H](O)[C@@H](F)O[C@@H]3CO)O[C@@H]2CO)O[C@H](CO)[C@H](O)[C@@H]1O[C@@H]1O[C@H](CO)[C@H](O)[C@H](O)[C@H]1O; assay: as §6
[14] = substrate: CCCCCCCCCCCCC/C=C/[C@@H](O)[C@@H](N)CO; assay: (§7) Activity of Rhodococcus sp. M777 Endoglycoceramidase 2 A81E mutant
[15] = substrate: CC(=O)N[C@H]1[C@H](O[C@@H]2[C@H](O[C@]3(C(=O)O)C[C@H](O)[C@@H](NC(C)=O)[C@H]([C@@H](O)[C@@H](O)CO)O3)[C@@H](O)[C@H](O[C@H]3[C@H](O)[C@@H](O)[C@@H](F)O[C@@H]3CO)O[C@@H]2CO)O[C@H](CO)[C@H](O)[C@@H]1O[C@@H]1O[C@H](CO)[C@H](O)[C@H](O)[C@H]1O; assay: as §7
[16] = substrate: CCCCCCCCCCCCC/C=C/[C@@H](O)[C@@H](N)CO; assay: (§8) Ratio of Kcat to Km of Activity of Rhodococcus sp. M777 Endoglycoceramidase 2 A81E mutant
[17] = substrate: CC(=O)N[C@H]1[C@H](O[C@@H]2[C@H](O[C@]3(C(=O)O)C[C@H](O)[C@@H](NC(C)=O)[C@H]([C@@H](O)[C@@H](O)CO)O3)[C@@H](O)[C@H](O[C@H]3[C@H](O)[C@@H](O)[C@@H](F)O[C@@H]3CO)O[C@@H]2CO)O[C@H](CO)[C@H](O)[C@@H]1O[C@@H]1O[C@H](CO)[C@H](O)[C@H](O)[C@H]1O; assay: as §8

B1: Endoglycoceramidase II (Rhodococcus sp), A0ACD6B832 K129N (protein)
chain: MRRTRLVSLIVTGSLVFGGGVAAAQSSLAASGSGSGSGTALTPSYLKDDDGRSLILRGFNTASSAKSAPDGMPQFTEADLAREYADMGTNFVRFLISWRSVEPAPGVYDQQYLDRVEDRVGWYAERGYNVMLDMHQDVYSGAITPEGNSGNGAGAIGNGAPAWATYMDGLPVEPQPRWELYYIQPGVMRAFDNFWNTTGKHPELVEHYAKAWRAVADRFADNDAVVAYDLMNEPFGGSLQGPAFEAGPLAAMYQRTTDAIRQVDQDTWVCVAPQAIGVNQGLPSGLTKIDDPRAGQQRIAYCPHLYPLPLDIGDGHEGLARTLTDVTIDAWRANTAHTARVLGDVPIILGEFGLDTTLPGARDYIERVYGTAREMGAGVSYWSSDPGPWGPYLPDGTQTLLVDTLNKPYPRAVAGTPTEWSSTSDRLQLTIEPDAAITAPTEIYLPEAGFPGDVHVEGADVVGWDRQSRLLTVRTPADSGNVTVTVTPAA
[1]
  kcat/Km: 3.1 M⁻¹ s⁻¹

B2: Endoglycoceramidase II (Rhodococcus sp), A0ACD6B832 D314Y (protein)
chain: B1 chain with N129K, D314Y
[2]
  Km: 1600 µM
  kcat: 0.7 s⁻¹
[3]
  Km: 580 µM
  kcat: 0.49 s⁻¹
[4]
  kcat/Km: 443 M⁻¹ s⁻¹
[5]
  kcat/Km: 845 M⁻¹ s⁻¹

B3: Endoglycoceramidase II (Rhodococcus sp), A0ACD6B832 A153T (protein)
chain: B1 chain with N129K, A153T
[6]
  Km: 460 µM
  kcat: 0.2 s⁻¹
[7]
  Km: 420 µM
  kcat: 0.17 s⁻¹
[8]
  kcat/Km: 435 M⁻¹ s⁻¹
[9]
  kcat/Km: 405 M⁻¹ s⁻¹

B4: Endoglycoceramidase II (Rhodococcus sp), A0ACD6B832 I276F (protein)
chain: B1 chain with N129K, I276F
[10]
  kcat/Km: 846 M⁻¹ s⁻¹
[11]
  kcat/Km: 86 M⁻¹ s⁻¹
[12]
  Km: 130 µM
  kcat: 0.11 s⁻¹
[13]
  Km: 1300 µM
  kcat: 0.11 s⁻¹

B5: Endoglycoceramidase II (Rhodococcus sp), A0ACD6B832 A81E (protein)
chain: B1 chain with A81E, N129K
[14]
  Km: 200 µM
  kcat: 0.12 s⁻¹
[15]
  Km: 970 µM
  kcat: 0.12 s⁻¹
[16]
  kcat/Km: 600 M⁻¹ s⁻¹
[17]
  kcat/Km: 123 M⁻¹ s⁻¹
